Measurements reported in patent US20110177071A1 (PERSEID THERAPEUTICS, published 2011).

T1: full-length human CD86 on HEK293 cells (human, UniProt P42081 24-329)
T1 sequence: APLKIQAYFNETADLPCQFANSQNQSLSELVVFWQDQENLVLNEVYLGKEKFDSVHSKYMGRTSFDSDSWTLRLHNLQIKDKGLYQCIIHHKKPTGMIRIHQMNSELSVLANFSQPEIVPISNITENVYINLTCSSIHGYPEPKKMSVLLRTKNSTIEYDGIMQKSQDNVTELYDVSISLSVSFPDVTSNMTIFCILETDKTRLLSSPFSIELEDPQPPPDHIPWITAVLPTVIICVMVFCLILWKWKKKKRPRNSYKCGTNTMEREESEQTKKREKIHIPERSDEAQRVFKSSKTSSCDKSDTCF

T2: human CD86-murine Ig fusion protein (human)
T2 construct: Bought (Ancell #509-820); also called hCD86-mIg
T2 chain: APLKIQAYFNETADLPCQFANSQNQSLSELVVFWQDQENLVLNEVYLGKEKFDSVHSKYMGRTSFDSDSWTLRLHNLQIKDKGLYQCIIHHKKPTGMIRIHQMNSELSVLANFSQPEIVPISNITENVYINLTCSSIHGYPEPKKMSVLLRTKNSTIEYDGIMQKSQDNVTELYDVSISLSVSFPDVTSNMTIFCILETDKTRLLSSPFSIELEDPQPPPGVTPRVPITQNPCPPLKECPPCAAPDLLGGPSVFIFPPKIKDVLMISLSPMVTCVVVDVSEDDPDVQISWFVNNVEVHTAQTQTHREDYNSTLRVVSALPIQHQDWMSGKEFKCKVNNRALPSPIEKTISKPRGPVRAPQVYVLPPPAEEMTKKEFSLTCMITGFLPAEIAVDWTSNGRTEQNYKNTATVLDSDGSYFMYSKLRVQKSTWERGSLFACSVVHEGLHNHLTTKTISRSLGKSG

T3: human CD80-murine Ig fusion protein (human)
T3 construct: Bought (Ancell #510-820); also called hCD80-mIg; human CD80-murine IgG
T3 chain: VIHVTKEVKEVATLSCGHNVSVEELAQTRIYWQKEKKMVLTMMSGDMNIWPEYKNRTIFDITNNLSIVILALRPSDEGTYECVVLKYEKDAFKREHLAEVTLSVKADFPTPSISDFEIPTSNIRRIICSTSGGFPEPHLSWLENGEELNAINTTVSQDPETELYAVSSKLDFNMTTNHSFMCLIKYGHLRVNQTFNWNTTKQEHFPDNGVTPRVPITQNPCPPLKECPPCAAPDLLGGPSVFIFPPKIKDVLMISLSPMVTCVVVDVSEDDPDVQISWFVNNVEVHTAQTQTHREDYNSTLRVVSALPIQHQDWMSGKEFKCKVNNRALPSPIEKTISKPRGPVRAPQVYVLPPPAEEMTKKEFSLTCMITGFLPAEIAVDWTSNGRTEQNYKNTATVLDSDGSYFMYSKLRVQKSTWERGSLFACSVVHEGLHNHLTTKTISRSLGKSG

B1: D2-IgG2 (Fc fusion)
chain: MHVAQPAVVLASSRGIASFVCEYESPHKANEIRVTVLRQANSQVTEVCAMTYMKGDELTFLDDPFCTGTFSGNQVNLTIQGLRAADTGLYICKVELMYPPPYYLGMGNGTQIYVIDPEPCPDSDERKCCVECPPCPAPPVAGPSVFLFPPKPKDTLMISRTPEVTCVVVDVSHEDPEVQFNWYVDGVEVHNAKTKPREEQFNSTFRVVSVLTVVHQDWLNGKEYKCKVSNKGLPAPIEKTISKTKGQPREPQVYTLPPSREEMTKNQVSLTCLVKGFYPSDIAVEWESNGQPENNYKTTPPMLDSDGSFFLYSKLTVDKSRWQQGNVFSCSVMHEALHNHYTQKSLSLSPG
B2: D3-6-IgG2 (Fc fusion)
chain: MHVAQPAVVLASSRGIASFVCEYESPGKANEIRVTVLRQAGSQVTEVCAMTYMMGDELTFLDDPSCTGTFSGNQVNLTIQGLRAADTGLYICKVELMYPPPYYLGFGNGTQIYVIDPEPCPDSDERKCCVECPPCPAPPVAGPSVFLFPPKPKDTLMISRTPEVTCVVVDVSHEDPEVQFNWYVDGVEVHNAKTKPREEQFNSTFRVVSVLTVVHQDWLNGKEYKCKVSNKGLPAPIEKTISKTKGQPREPQVYTLPPSREEMTKNQVSLTCLVKGFYPSDIAVEWESNGQPENNYKTTPPMLDSDGSFFLYSKLTVDKSRWQQGNVFSCSVMHEALHNHYTQKSLSLSPG
notes: also called D3-06-IgG2
B3: D3-34-IgG2 (Fc fusion)
chain: MHVAQPAVVLASSRGIASFVCEYASPGKANEVRVTVLRQADSQVTEVCAMTYMKGNELTFLDDPSCTGTFSGNQVNLTIQGLRAMDTGLYICKVELMYPPPYYLGIGNGTQIYVIDPEPCPDSDERKCCVECPPCPAPPVAGPSVFLFPPKPKDTLMISRTPEVTCVVVDVSHEDPEVQFNWYVDGVEVHNAKTKPREEQFNSTFRVVSVLTVVHQDWLNGKEYKCKVSNKGLPAPIEKTISKTKGQPREPQVYTLPPSREEMTKNQVSLTCLVKGFYPSDIAVEWESNGQPENNYKTTPPMLDSDGSFFLYSKLTVDKSRWQQGNVFSCSVMHEALHNHYTQKSLSLSPG
B4: D3-52-IgG2 (Fc fusion)
chain: MHVAQPAVVLASSRGIASFVCEYASPGKANEIRVTVLRQADSQVTEVCAMTYMKGNELTFLDDPICTGTFSGNQVNLTIQGLRAMDTGLYICKVELMYPPPYYLGIGNGTQIYVIDPEPCPDSDERKCCVECPPCPAPPVAGPSVFLFPPKPKDTLMISRTPEVTCVVVDVSHEDPEVQFNWYVDGVEVHNAKTKPREEQFNSTFRVVSVLTVVHQDWLNGKEYKCKVSNKGLPAPIEKTISKTKGQPREPQVYTLPPSREEMTKNQVSLTCLVKGFYPSDIAVEWESNGQPENNYKTTPPMLDSDGSFFLYSKLTVDKSRWQQGNVFSCSVMHEALHNHYTQKSLSLSPG
B5: D3-3-IgG2 (Fc fusion)
chain: MHVAQPAVVLASSRGIASFVCEYESPGKANEVRVTVLRQAGSQVTEVCAMTYMKGDELTFLDDPSCTGTFSGNQVNLTIQGLRAADTGLYICKVELMYPPPYYLGFGNGTQIYVIDPEPCPDSDERKCCVECPPCPAPPVAGPSVFLFPPKPKDTLMISRTPEVTCVVVDVSHEDPEVQFNWYVDGVEVHNAKTKPREEQFNSTFRVVSVLTVVHQDWLNGKEYKCKVSNKGLPAPIEKTISKTKGQPREPQVYTLPPSREEMTKNQVSLTCLVKGFYPSDIAVEWESNGQPENNYKTTPPMLDSDGSFFLYSKLTVDKSRWQQGNVFSCSVMHEALHNHYTQKSLSLSPG
notes: also called D3-03-IgG2
B6: D3-2-IgG2 (Fc fusion)
chain: MHVAQPAVVLASSRGIASFVCEYESPGKATEIRVTVLRQAGSQVTEVCAMTYMKGDELTFLDDPSCTGTFSGNQVNLTIQGLRAADTGLYICKVELMYPPPYYLGFGNGTQIYVIDPEPCPDSDERKCCVECPPCPAPPVAGPSVFLFPPKPKDTLMISRTPEVTCVVVDVSHEDPEVQFNWYVDGVEVHNAKTKPREEQFNSTFRVVSVLTVVHQDWLNGKEYKCKVSNKGLPAPIEKTISKTKGQPREPQVYTLPPSREEMTKNQVSLTCLVKGFYPSDIAVEWESNGQPENNYKTTPPMLDSDGSFFLYSKLTVDKSRWQQGNVFSCSVMHEALHNHYTQKSLSLSPG
notes: also called D3-02-IgG2; D3-02
B7: D3-15-IgG2 (Fc fusion)
chain: MHVAQPAVVLASSRGIASFVCEYESPGKANEIRVTVLRQADSQVTEVCAMTYMKGDELTFLDDPSCTGTFSGNQVNLTIQGLRAMDTGLYICKVELMYPPPYYLGFGNGTQIYVIDPEPCPDSDERKCCVECPPCPAPPVAGPSVFLFPPKPKDTLMISRTPEVTCVVVDVSHEDPEVQFNWYVDGVEVHNAKTKPREEQFNSTFRVVSVLTVVHQDWLNGKEYKCKVSNKGLPAPIEKTISKTKGQPREPQVYTLPPSREEMTKNQVSLTCLVKGFYPSDIAVEWESNGQPENNYKTTPPMLDSDGSFFLYSKLTVDKSRWQQGNVFSCSVMHEALHNHYTQKSLSLSPG
B8: D3-50-IgG2 (Fc fusion)
chain: MHVAQPAVVLASSRGIASFVCEYASPGKANEVRVTVLRQADSQVTEVCAMTYMKGDELTFLDDPICTGTFSGNQVNLTIQGLRAMDTGLYICKVELMYPPPYYLGIGNGTQIYVIDPEPCPDSDERKCCVECPPCPAPPVAGPSVFLFPPKPKDTLMISRTPEVTCVVVDVSHEDPEVQFNWYVDGVEVHNAKTKPREEQFNSTFRVVSVLTVVHQDWLNGKEYKCKVSNKGLPAPIEKTISKTKGQPREPQVYTLPPSREEMTKNQVSLTCLVKGFYPSDIAVEWESNGQPENNYKTTPPMLDSDGSFFLYSKLTVDKSRWQQGNVFSCSVMHEALHNHYTQKSLSLSPG
B9: D3-39-IgG2 (Fc fusion)
chain: MHVAQPAVVLASSRGIASFVCEYESPGKANEVRVTVLRQADSQVTEVCAMTYMKGNELTFLDDPICTGTFSGNQVNLTIQGLRAMDTGLYICKVELMYPPPYYLGIGNGTQIYVIDPEPCPDSDERKCCVECPPCPAPPVAGPSVFLFPPKPKDTLMISRTPEVTCVVVDVSHEDPEVQFNWYVDGVEVHNAKTKPREEQFNSTFRVVSVLTVVHQDWLNGKEYKCKVSNKGLPAPIEKTISKTKGQPREPQVYTLPPSREEMTKNQVSLTCLVKGFYPSDIAVEWESNGQPENNYKTTPPMLDSDGSFFLYSKLTVDKSRWQQGNVFSCSVMHEALHNHYTQKSLSLSPG

Tests used:
[1] = target: T1, full-length human CD86 on HEK293 cells; assay: cell-based or functional assay
[2] = target: T2, human CD86-murine Ig fusion protein; assay: SPR Biacore, hCD86-mIg captured
Protocol: (§1) All Biacore™ analyses were performed on a Biacore™ 2000 system (GE Healthcare) at room temperature (RT, 25° C.). HBS-EP buffer (10 mM HEPES (pH 7.4), 150 mM NaCl, 3 mM EDTA, 0.005% surfactant P20) was used as the flow buffer for all experiments.
(§2) Rabbit anti-mouse IgG antibody (GE Healthcare, #BR-1005-14) was immobilized on CM5 sensor chips (GE Healthcare, #BR-1000-14) according to the manufacturer's protocol. Antibody was diluted to 30 μg/ml in immobilization buffer (10 mM sodium acetate, pH 5.0 (BR-1003-51)). At a flow rate of 5 μl/minute, sensor chip CM5 was activated with a 35 μl injection of a mixture of 1-Ethyl-3-[3-dimethylaminopropyl]carbodiimide hydrochloride (EDC) and N-hydroxysuccinimide (NHS) (made by mixing equal volumes of 11.5 mg/ml EDC and 75 mg/ml NHS) (GE Healthcare, #BR-1000-50), followed by a 35 μl injection of undiluted antibody. Un-reacted sites were quenched with 35 μl of 1M ethanolamine-HCL, pH 8.5 (GE Healthcare, #BR-1000-50). […] CTLA-4 ligands human CD80-murine Ig (hCD80-mIg) (Ancell, #510-820) or human CD86-murine Ig (hCD86-mIg) (Ancell, #509-820) were bound to antibody-coated sensor chips by injection of 10 μl or 16 μl, respectively, ligand solution (2 μg/ml protein in HBS-EP buffer [10 mM HEPES pH 7.4, 150 mM NaCl, 3 mM EDTA, 0.005% (v/v) surfactant P-20, GE Healthcare, #BR-1001-88]) at a flow rate of 10 μl/min.

[3] = target: T3, human CD80-murine Ig fusion protein; assay: SPR Biacore, hCD80-mIg captured
Protocol: as §1, §2

Binder | Mean IC50 (nM), CD4+ T cell proliferation [1] [nM] | Kd [2] [nM] | Binding Avidity (Relative to Orencia) [3] [fold] | Kd [3] [nM] | Binding Avidity (Relative to Orencia) [2] [fold]
B1 | 0.03 | 0.131 to 0.262 | > 2 | < 0.439 | 
B2 | 0.05 | 0.131 to 0.262 |  | 0.439 to 1.75 | 
B3 | 0.05 | 0.131 to 0.262 |  | 0.439 to 1.75 | 
B4 | 0.07 | 0.262 to 0.523 |  | 0.439 to 1.75 | 
B5 | 0.04 | 0.131 to 0.262 |  | 0.439 to 1.75 | 
B6 | 0.03 | 0.131 to 0.262 |  | 0.439 to 1.75 | 
B7 | 0.02 | < 0.131 |  | 0.439 to 1.75 | > 40
B8 | 0.06 | 0.131 to 0.262 |  | 0.439 to 1.75 | 
B9 | 0.05 | 0.262 to 0.523 |  | 0.439 to 1.75 | 
